pKd: −log10 of the molar value.

This test has as its target HMPV F v3B_Δ12 (human metapneumovirus). In words: BLI; Octet Red384; […] (500.0 nM to 7.8 nM), 300 s association and 300 s dissociation; 30°C, […]; global 1:1 fit. In general terms: In BLI a coated tip is dipped into the sample, and binding shifts an interference pattern.

As usually defined, the pKd is −log10 of the Kd, conventionally taken in molar units. The substance MPE8 antigen-binding fragment (Fab) had a pKd of 7.68.

For the origin of these results see PMC10516418.
